Target: KS17 N2 NA (neuraminidase head of H3N2 A/Kansas/14/2017) (influenza A virus H3N2 A/Kansas/14/2017)
Test: cryo-EM structure

“KS17 N2 NA (neuraminidase head of H3N2 A/Kansas/14/2017) (domain or fragment)” showed a stoichiometry N of 4.

From publication doi:10.1101/2024.11.26.625467
